According to paper PMC9352680, “A comprehensive thermodynamic model for RNA binding by the Saccharomyces cerevisiae Pumilio protein PUF4”:
Substitutions are numbered along the chain they refer to. Names may count otherwise.

T1: PUF4 RNA-binding domain (Saccharomyces cerevisiae, UniProt P25339 537-888)
T1 sequence: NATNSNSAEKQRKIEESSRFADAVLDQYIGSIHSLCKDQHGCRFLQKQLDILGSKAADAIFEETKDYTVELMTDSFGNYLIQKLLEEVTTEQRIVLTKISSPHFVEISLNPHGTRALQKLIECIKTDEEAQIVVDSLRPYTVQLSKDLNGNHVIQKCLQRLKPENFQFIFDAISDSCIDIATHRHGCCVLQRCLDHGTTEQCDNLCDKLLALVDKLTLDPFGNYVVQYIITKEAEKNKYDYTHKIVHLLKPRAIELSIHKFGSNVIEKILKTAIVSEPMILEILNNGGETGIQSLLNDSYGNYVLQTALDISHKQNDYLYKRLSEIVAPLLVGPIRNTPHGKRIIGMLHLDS

B1: Id_ii_S2_P3E.4_K3.3_C3.2_[C-2T]_[T-1C]_H3.3_A3.1_F3.1_T3.2_[A10C] (ssRNA)
RNA: UUUGAUUAAUAUGAUAUCGUUCUUUCUUCACACUAUAUCUUCUUUCUCGAUAUCAUAUUAAUCUUU
B2: Id_ii_S2_P3E.4_K3.3_C3.2_[T-1C]_H3.3_A3.1_F3.1_T3.2_[T9A]_[A10T] (ssRNA)
RNA: B1 RNA with U28C, U38A, C39U
B3: Id_ii_S2_P3E.4_K3.3_C3.2_[C-2A]_H3.3_A3.1_F3.1_T3.2_[T9C]_[A10C] (ssRNA)
RNA: B1 RNA with U28A, C29U, U38C
B4: Id_ii_S2_P3E.4_K3.3_C3.2_[T-1A]_H3.3_A3.1_F3.1_T3.2_[A10T] (ssRNA)
RNA: B1 RNA with U28C, C29A, C39U
B5: Id_ii_S2_P3E.4_K3.3_C3.2_[C-2A]_[T-1A]_H3.3_A3.1_F3.1_T3.2_[T9C]_[A10G] (ssRNA)
RNA: B1 RNA with U28A, C29A, U38C, C39G
B6: Id_ii_S2_P3E.4_K3.3_C3.2_[C-2A]_[T-1C]_H3.3_A3.1_F3.1_T3.2_[A10T] (ssRNA)
RNA: B1 RNA with U28A, C39U
B7: Id_ii_S2_P3E.4_K3.3_C3.2_[C-2A]_H3.3_A3.1_F3.1_T3.2_[T9A]_[A10G] (ssRNA)
RNA: B1 RNA with U28A, C29U, U38A, C39G
B8: Id_ii_S2_P3E.4_K3.3_C3.2_[C-2T]_[T-1A]_H3.3_A3.1_F3.1_T3.2_[T9C]_[A10T] (ssRNA)
RNA: B1 RNA with C29A, U38C, C39U
B9: Id_ii_S2_P3E.4_K3.3_C3.2_[C-2T]_H3.3_A3.1_F3.1_T3.2_[T9C]_[A10T] (ssRNA)
RNA: B1 RNA with C29U, U38C, C39U
B10: Id_ii_S2_P3E.4_K3.3_C3.2_[T-1G]_H3.3_A3.1_F3.1_T3.2_[A10T] (ssRNA)
RNA: B1 RNA with U28C, C29G, C39U
B11: Id_ii_S2_P3E.4_K3.3_C3.2_H3.3_A3.1_F3.1_T3.2_[A10T] (ssRNA)
RNA: B1 RNA with U28C, C29U, C39U
B12: Id_ii_S2_P3E.4_K3.3_C3.2_[C-2T]_[T-1A]_H3.3_A3.1_F3.1_T3.2_[T9A]_[A10T] (ssRNA)
RNA: B1 RNA with C29A, U38A, C39U
B13: Id_ii_S2_P3E.4_K3.3_C3.2_[C-2T]_[T-1C]_H3.3_A3.1_F3.1_T3.2_[A10T] (ssRNA)
RNA: B1 RNA with C39U
B14: Id_ii_S2_P3E.4_K3.3_C3.2_[C-2A]_[T-1C]_H3.3_A3.1_F3.1_T3.2_[T9A] (ssRNA)
RNA: B1 RNA with U28A, U38A, C39A
B15: Id_ii_S2_P3E.4_K3.3_C3.2_[T-1A]_H3.3_A3.1_F3.1_T3.2_[T9C]_[A10G] (ssRNA)
RNA: B1 RNA with U28C, C29A, U38C, C39G
B16: Id_ii_S2_P3E.4_K3.3_C3.2_H3.3_A3.1_F3.1_T3.2_[T9A] (ssRNA)
RNA: B1 RNA with U28C, C29U, U38A, C39A
B17: Id_ii_S2_P3E.4_K3.3_C3.2_[C-2T]_H3.3_A3.1_F3.1_T3.2_[A10G] (ssRNA)
RNA: B1 RNA with C29U, C39G
B18: Id_ii_S2_P3E.4_K3.3_C3.2_H3.3_A3.1_F3.1_T3.2_[T9G]_[A10C] (ssRNA)
RNA: B1 RNA with U28C, C29U, U38G
B19: Id_ii_S2_P3E.4_K3.3_C3.2_[C-2A]_[T-1C]_H3.3_A3.1_F3.1_T3.2_[T9C]_[A10T] (ssRNA)
RNA: B1 RNA with U28A, U38C, C39U
B20: Id_ii_S2_P3E.4_K3.3_C3.2_[C-2A]_H3.3_A3.1_F3.1_T3.2_[T9C]_[A10G] (ssRNA)
RNA: B1 RNA with U28A, C29U, U38C, C39G
B21: Id_ii_S2_P3E.4_K3.3_C3.2_H3.3_A3.1_F3.1_T3.2_[T9A]_[A10T] (ssRNA)
RNA: B1 RNA with U28C, C29U, U38A, C39U
B22: Id_ii_S2_P3E.4_K3.3_C3.2_[C-2A]_H3.3_A3.1_F3.1_T3.2_[T9A] (ssRNA)
RNA: B1 RNA with U28A, C29U, U38A, C39A
B23: Id_ii_S2_P3E.4_K3.3_C3.2_[C-2A]_[T-1A]_H3.3_A3.1_F3.1_T3.2_[T9A]_[A10T] (ssRNA)
RNA: B1 RNA with U28A, C29A, U38A, C39U
B24: Id_ii_S2_P3E.4_K3.3_C3.2_[C-2A]_[T-1A]_H3.3_A3.1_F3.1_T3.2_[T9A] (ssRNA)
RNA: B1 RNA with U28A, C29A, U38A, C39A
B25: Id_ii_S2_P3E.4_K3.3_C3.2_[C-2A]_H3.3_A3.1_F3.1_T3.2_[A10C] (ssRNA)
RNA: B1 RNA with U28A, C29U
B26: Id_ii_S2_P3E.4_K3.3_C3.2_H3.3_A3.1_F3.1_T3.2_[A10C] (ssRNA)
RNA: B1 RNA with U28C, C29U
B27: Id_ii_S2_P3E.4_K3.3_C3.2_[T-1C]_H3.3_A3.1_F3.1_T3.2_[T9C]_[A10T] (ssRNA)
RNA: B1 RNA with U28C, U38C, C39U
B28: Id_ii_S2_P3E.4_K3.3_C3.2_[T-1A]_H3.3_A3.1_F3.1_T3.2_[T9C]_[A10C] (ssRNA)
RNA: B1 RNA with U28C, C29A, U38C
B29: Id_ii_S2_P3E.4_K3.3_C3.2_[T-1C]_H3.3_A3.1_F3.1_T3.2 (ssRNA)
RNA: B1 RNA with U28C, C39A
B30: Id_ii_S2_P3E.4_K3.3_C3.2_[T-1A]_H3.3_A3.1_F3.1_T3.2_[T9C]_[A10T] (ssRNA)
RNA: B1 RNA with U28C, C29A, U38C, C39U
B31: Id_ii_S2_P3E.4_K3.3_C3.2_[C-2T]_H3.3_A3.1_F3.1_T3.2_[A10C] (ssRNA)
RNA: B1 RNA with C29U
B32: Id_ii_S2_P3E.4_K3.3_C3.2_[T-1C]_H3.3_A3.1_F3.1_T3.2_[T9C]_[A10C] (ssRNA)
RNA: B1 RNA with U28C, U38C
B33: Id_ii_S2_P3E.4_K3.3_C3.2_[C-2T]_H3.3_A3.1_F3.1_T3.2_[T9G]_[A10C] (ssRNA)
RNA: B1 RNA with C29U, U38G
B34: Id_ii_S2_P3E.4_K3.3_C3.2_[C-2A]_H3.3_A3.1_F3.1_T3.2_[T9C] (ssRNA)
RNA: B1 RNA with U28A, C29U, U38C, C39A
B35: Id_ii_S2_P3E.4_K3.3_C3.2_[T-1A]_H3.3_A3.1_F3.1_T3.2_[T9G]_[A10C] (ssRNA)
RNA: B1 RNA with U28C, C29A, U38G
B36: Id_ii_S2_P3E.4_K3.3_C3.2_[T-1A]_H3.3_A3.1_F3.1_T3.2_[T9A]_[A10T] (ssRNA)
RNA: B1 RNA with U28C, C29A, U38A, C39U
B37: Id_ii_S2_P3E.4_K3.3_C3.2_[C-2T]_[T-1A]_H3.3_A3.1_F3.1_T3.2_[T9A] (ssRNA)
RNA: B1 RNA with C29A, U38A, C39A
B38: Id_ii_S2_P3E.4_K3.3_C3.2_[C-2A]_[T-1A]_H3.3_A3.1_F3.1_T3.2_[A10C] (ssRNA)
RNA: B1 RNA with U28A, C29A
B39: Id_ii_S2_P3E.4_K3.3_C3.2_[C-2A]_H3.3_A3.1_F3.1_T3.2_[T9A]_[A10T] (ssRNA)
RNA: B1 RNA with U28A, C29U, U38A, C39U
B40: Id_ii_S2_P4E.2_K4.1_C4.2_[C-2G]_[T-1G]_H4.1_A4.1_F4.1_T4.2_[G10T] (ssRNA)
RNA: UUUGAUUAAUAUGAUAUCGUUCUUUCUGGUGUAUAUUAUUUUCUUUCUCGAUAUCAUAUUAAUCUUU
B41: Id_ii_S2_P4E.2_K4.1_C4.2_[C-2G]_[T-1C]_H4.1_A4.1_F4.1_T4.2_[G10T]_[T11A] (ssRNA)
RNA: B40 RNA with G29C, U40A
B42: Id_ii_S2_P4E.2_K4.1_C4.2_[C-2G]_[T-1C]_H4.1_A4.1_F4.1_T4.2_[G10T] (ssRNA)
RNA: B40 RNA with G29C
B43: Id_ii_S2_P4E.2_K4.1_C4.2_[C-2G]_[T-1C]_H4.1_A4.1_F4.1_T4.2_[G10T]_[T11G] (ssRNA)
RNA: B40 RNA with G29C, U40G
B44: Id_ii_S2_P4E.2_K4.1_C4.2_[C-2G]_[T-1C]_H4.1_A4.1_F4.1_T4.2_[G10C] (ssRNA)
RNA: B40 RNA with G29C, U39C
B45: Id_ii_S2_P4E.2_K4.1_C4.2_[C-2G]_[T-1G]_H4.1_A4.1_F4.1_T4.2_[G10A]_[T11A] (ssRNA)
RNA: B40 RNA with U39A, U40A
B46: Id_ii_S2_P4E.2_K4.1_C4.2_[C-2G]_[T-1C]_H4.1_A4.1_F4.1_T4.2_[G10C]_[T11C] (ssRNA)
RNA: B40 RNA with G29C, U39C, U40C
B47: Id_ii_S2_P4E.2_K4.1_C4.2_[C-2G]_[T-1C]_H4.1_A4.1_F4.1_T4.2_[G10A]_[T11A] (ssRNA)
RNA: B40 RNA with G29C, U39A, U40A

Molecular target: T1, PUF4 RNA-binding domain
Test: Mg; RNA-MaP; 20 mM Na-HEPES pH 7.4, 30 mM KOAc, 0.75 mM MgCl2, 0.1% Tween-20, 5% glycerol, 0.1 mg/mL BSA, 2 mM DTT; 25 C; 0.0125-409.6 nM protein
Conditions: tags: N-His6-TEV cleaved; C-SNAP kept, Cy3B-labelled; label: tethered on chip by stalled RNA polymerase

| Binder | Kd [nM] |
| --- | --- |
| UCUCUUUGUGUUAUAAUCUCUU (ssRNA) [Ib_S1_P5E.1_K5.1_C5.1_H5.1_[A4G]_A5.1_F5.1_[T9A]_T5.1] | 57.8 |
| B1 | 1260 |
| B2 | 1890 |
| B3 | 15.5 |
| B4 | 1130 |
| B5 | > 2300 |
| B6 | 868 |
| B7 | 174 |
| B8 | 1860 |
| B9 | 670 |
| B10 | 1500 |
| B11 | 399 |
| B12 | 2150 |
| B13 | 940 |
| B14 | 1070 |
| B15 | > 2300 |
| B16 | 454 |
| B17 | > 2300 |
| B18 | 1600 |
| B19 | 1810 |
| B20 | 116 |
| B21 | 776 |
| B22 | 27.3 |
| B23 | > 2300 |
| B24 | 2020 |
| B25 | 11.8 |
| B26 | 343 |

| Binder | Kd [nM] |
| --- | --- |
| B27 | 1080 |
| B28 | 2100 |
| B29 | 194 |
| B30 | > 2300 |
| B31 | 475 |
| B32 | 1460 |
| B33 | 898 |
| B34 | 21.7 |
| B35 | > 2300 |
| B36 | > 2300 |
| B37 | > 2300 |
| B38 | 1770 |
| B39 | 32.2 |
| UCUCUUUGUGUUAUGAUCUCUU (ssRNA) [Ib_S1_P5E.1_K5.1_C5.1_H5.1_[A4G]_A5.1_F5.1_[T9G]_T5.1] | 750 |
| UCUCUUUGUUUUAUGAUCUCUU (ssRNA) [Ib_S1_P5E.1_K5.1_C5.1_H5.1_[A4T]_A5.1_F5.1_[T9G]_T5.1] | 981 |
| UCUCUUUGUCUUAUCAUCUCUU (ssRNA) [Ib_S1_P5E.1_K5.1_C5.1_H5.1_[A4C]_A5.1_F5.1_[T9C]_T5.1] | 2040 |
| UCUCUUUGUCUUAUAAUCUCUU (ssRNA) [Ib_S1_P5E.1_K5.1_C5.1_H5.1_[A4C]_A5.1_F5.1_[T9A]_T5.1] | 102 |
| B40 | 0.435 |
| B41 | 0.822 |
| B42 | 0.289 |
| B43 | 0.82 |
| B44 | 0.667 |
| B45 | 1.5 |
| B46 | 1.25 |
| B47 | 0.738 |
| UCUCUUUGUAUUAUUCUCUCUU (ssRNA) [Ia_S1_P5E.1_K5.1_C5.1_H5.1_A5.1_F5.1_[A10C]_T5.1] | 16.4 |
